Target: the molecule itself
Test: AUC

B1: histidine tagged MutL–NTD (domain or fragment, E. coli, UniProt P23367 1-375, looked up)
chain: MPIQVLPPQLANQIAAGEVVERPASVVKELVENSLDAGATRIDIDIERGGAKLIRIRDNGCGIKKDELALALARHATSKIASLDDLEAIISLGFRGEALASISSVSRLTLTSRTAEQQEAWQAYAEGRDMNVTVKPAAHPVGTTLEVLDLFYNTPARRKFLRTEKTEFNHIDEIIRRIALARFDVTINLSHNGKIVRQYRAVPEGGQKERRLGAICGTAFLEQALAIEWQHGDLTLRGWVADPNHTTPALAEIQYCYVNGRMMRDRLINHAIRQACEDKLGADQQPAFVLYLEIDPHQVDVNVHPAKHEVRFHQSRLVHDFIYQGVLSVLQQQLETPLPLDDEPQPAPRSIPENRVAAGRNHFAEPAAREPVAPR
**Q.** Which “stoichiometry N” value does the source give for B1 here?
**A.** The value was 2.

From article PMC2715241 (Nucleic Acids Research, 2009)
